According to patent publication US20210395393A1 (EMSTOPA, published 2021):
Numbering of substitutions follows the chain as printed.

What was measured:
[1] = molecular target: T1, recombinant human tPA (rh-tPA: abcam ab92637) (human, UniProt P00750 36-562); assay: binding ELISA, plate coated with human tPA
T1 construct: Bought protein; also called tPA antigen
Source text: (§1) Binding activity of the purified TPAi-1 RHP/RKA F(ab′)2 to the human tPA antigen was compared to that of the purified TPAi-1 RHP/RKA whole IgG1 antibody and RHP/RKA Fab in a binding ELISA. […] The EC50 values for the IgG1 and Fab are in agreement with those seen in earlier experiments. There is a consistent 4-fold difference in avidity between these two formats.

[2] = molecular target: T1, recombinant human tPA (rh-tPA: abcam …); assay: cell-based or functional assay
[3] = molecular target: T1, recombinant human tPA (rh-tPA: abcam …); assay: binding ELISA, plate coated with human tPA; reference TPAi-1 RHP/RKA IgG1
Source text: as §1

[4] = molecular target: T1, recombinant human tPA (rh-tPA: abcam …); assay: binding ELISA, plate coated with human tPA; Fab as Expi293 conditioned medium
Source text: (§2) Binding activity of the TPAi-1 RHP/RKA Fab to the human tPA antigen was compared to that of the purified TPAi-1 RHP/RKA antibody in a binding ELISA. […] Following purification of TPAi-1 RHP/RKA Fab from a large scale culture, its binding to human tPA was reconfirmed by ELISA (FIG. 23). In this assay, plateauing of both binding curves was more apparent.

[5] = molecular target: T1, recombinant human tPA (rh-tPA: abcam …); assay: binding ELISA, plate coated with human tPA; reference TPAi-1 RHP/RKA Fab
Source text: as §2

[6] = molecular target: T1, recombinant human tPA (rh-tPA: abcam …); assay: binding ELISA to human tPA after serum incubation
Method: Purified samples of humanised antibodies TPAi-1 RHE/RKA and RHP/RKA were incubated in mouse, human and cynomolgus serum (4.10.1). The binding abilities of the antibodies after 29 days incubation were measured by binding ELISA to human tPA. For each antibody, one ELISA plate compared the binding of the 4° C. control sample to samples incubated at 37° C. in PBS and human serum. A second ELISA plate compared the binding of the 4° C. control sample to samples incubated at 37° C. in mouse and cynomolgus serum. […] Therefore the TPAi-1 RHE/RKA and RHP/RKA antibodies retained their binding capabilities on incubation in mouse, human and cynomolgus serum for 29 days.

T1 sequence (P00750 36-562 limits assumed): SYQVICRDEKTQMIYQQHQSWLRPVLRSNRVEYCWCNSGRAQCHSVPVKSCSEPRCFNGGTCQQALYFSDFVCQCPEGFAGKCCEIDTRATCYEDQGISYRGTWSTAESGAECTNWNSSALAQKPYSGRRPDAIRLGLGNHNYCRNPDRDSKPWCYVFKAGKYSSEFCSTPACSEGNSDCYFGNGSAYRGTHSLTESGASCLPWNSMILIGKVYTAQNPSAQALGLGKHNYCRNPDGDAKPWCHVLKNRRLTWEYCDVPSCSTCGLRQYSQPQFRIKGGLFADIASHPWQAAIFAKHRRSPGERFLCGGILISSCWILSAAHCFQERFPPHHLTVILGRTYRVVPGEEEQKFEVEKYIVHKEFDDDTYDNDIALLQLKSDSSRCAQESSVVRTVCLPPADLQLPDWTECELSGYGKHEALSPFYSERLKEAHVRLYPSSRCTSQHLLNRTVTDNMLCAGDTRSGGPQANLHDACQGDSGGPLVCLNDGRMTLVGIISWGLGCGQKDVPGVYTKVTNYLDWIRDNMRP

B1: TPAi-1 RHP/RKA Fab (Fab, V domains shown)
VH: QVQLVQSGAEVKKPGASVKVSCKASGNTSYWINWVRQATGQGLEWMGRIDPGGGSTGYAQKFQGRVTMTRDTSISTAYMELSSLRSEDTAVYYCASYYYAMAYWGQGTLVTVSS
VL: DVVMTQSPLSLPVTPGEPASISCRSSQSIVHSNGNTYLDWYLQKPGQSPQLLIYKVSNRASGVPDRFSGSGSGTDFTLKISRVEAEDVGVYYCFQGSHVPWTFGGGTKVEIK
notes: Recombinant Fab: RHP variable region in pHuG1_Fab vector with RKA in pHuK, expressed in Expi293 cells; also called TPAi-1 RHP/PKA Fab; humanised Fab
With B1 the EC50 [1] was 1.68 nM, the “inhibition of human plasma clot lysis (t-PA 1.5 nM, A405 nm turbidity)” value [2] was ~2 fold (amount against TPAi-1 RHP/RKA) and the “fold difference in avidity between IgG1 and Fab” value [3] was 4 fold. The EC50 [4] was 1.15 nM.

B2: TPAi-1 RHP/RKA (antibody, V domains shown)
VH: B1 VH
VL: B1 VL
notes: Human IgG1 kappa (pHuG1 / pHuK vectors); also called humanised TPAi-1 (RHP/RKA); humanized TPAi-1
B2 was tested, and the EC50 [1] was 0.475 nM and the “plateau A650 of the binding curve against the plateau of the Fab curve” value [5] was ~1.4 fold.

B3: TPAi-1 RHP/RKA F(ab')2 (other)
VH: B1 VH
VL: B1 VL
notes: F(ab')2 made by pepsin digestion of TPAi-1 RHP/RKA IgG1 kappa and gel filtration
B3 gave an EC50 [1] of 0.379 nM.

B4: TPAi-1 RHE/RKA (antibody, V domains shown)
VH: B1 VH with D71N
VL: B1 VL
notes: Human IgG1 kappa
B4: binds [6].
